The results in this text go back to patent US20200148732A1 (UNIVERSITY OF COPENHAGEN, published 2020).

Numbering of substitutions follows the chain as printed.

The target in experiment [1] is T1, GFP-TONSL E568A (Homo sapiens, UniProt Q96HA7 1-1378).
T1 construct: also called TONSL E568A / GFP; not shown: N-terminal GFP tag
T1 sequence: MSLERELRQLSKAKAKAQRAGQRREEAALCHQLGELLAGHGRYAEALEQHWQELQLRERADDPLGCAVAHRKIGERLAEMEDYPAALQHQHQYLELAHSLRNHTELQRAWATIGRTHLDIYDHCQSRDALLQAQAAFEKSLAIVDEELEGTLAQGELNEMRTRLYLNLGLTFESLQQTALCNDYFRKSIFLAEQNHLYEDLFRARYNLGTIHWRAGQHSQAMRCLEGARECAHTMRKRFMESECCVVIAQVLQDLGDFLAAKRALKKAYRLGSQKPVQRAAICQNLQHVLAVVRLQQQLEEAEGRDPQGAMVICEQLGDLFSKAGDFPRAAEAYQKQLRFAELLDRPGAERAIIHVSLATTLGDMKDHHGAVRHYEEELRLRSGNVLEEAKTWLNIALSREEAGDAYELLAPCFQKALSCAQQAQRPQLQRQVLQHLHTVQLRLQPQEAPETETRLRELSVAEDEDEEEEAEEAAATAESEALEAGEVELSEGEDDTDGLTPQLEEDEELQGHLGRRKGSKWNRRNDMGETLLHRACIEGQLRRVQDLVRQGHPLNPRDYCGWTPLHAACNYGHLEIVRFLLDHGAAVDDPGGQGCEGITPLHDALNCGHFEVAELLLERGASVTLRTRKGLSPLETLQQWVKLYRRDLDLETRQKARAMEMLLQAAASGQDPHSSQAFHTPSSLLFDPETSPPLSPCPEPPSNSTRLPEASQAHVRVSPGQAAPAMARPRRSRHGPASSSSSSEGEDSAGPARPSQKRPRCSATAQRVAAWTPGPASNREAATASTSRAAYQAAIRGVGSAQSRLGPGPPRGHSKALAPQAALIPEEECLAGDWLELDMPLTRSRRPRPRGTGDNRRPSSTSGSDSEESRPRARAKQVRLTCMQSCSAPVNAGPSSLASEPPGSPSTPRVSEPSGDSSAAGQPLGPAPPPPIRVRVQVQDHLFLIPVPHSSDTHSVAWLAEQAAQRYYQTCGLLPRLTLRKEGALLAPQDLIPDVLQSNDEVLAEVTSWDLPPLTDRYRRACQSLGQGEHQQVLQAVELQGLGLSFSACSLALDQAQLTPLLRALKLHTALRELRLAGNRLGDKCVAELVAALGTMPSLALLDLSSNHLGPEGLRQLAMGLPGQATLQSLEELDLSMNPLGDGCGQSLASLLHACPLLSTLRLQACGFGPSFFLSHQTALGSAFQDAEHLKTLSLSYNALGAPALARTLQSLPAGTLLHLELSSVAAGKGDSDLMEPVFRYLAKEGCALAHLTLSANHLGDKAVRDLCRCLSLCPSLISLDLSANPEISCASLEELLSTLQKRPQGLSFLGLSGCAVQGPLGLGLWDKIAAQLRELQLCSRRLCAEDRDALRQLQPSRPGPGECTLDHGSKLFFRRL
The experiment can be described thus: GFP immunoprecipitation of GFP-TONSL from transfected HeLa S3 cells, western blot (co-IP; association may be indirect). A general note: In western blotting, separated proteins are transferred to a membrane and probed.

For experiment [2], the target named is T2, GFP-TONSL W563A (Homo sapiens, UniProt Q96HA7 1-1378).
T2 construct: also called TONSL W563A / GFP; not shown: N-terminal GFP tag
T2 sequence: T1 sequence with W563A, A568E
The description is as above.

B1: MMS22L (endogenous, in cell extracts) (other, UniProt Q6ZRQ5 1-1243, looked up)
chain: MENCSAASTFLTDSLELELGTEWCKPPYFSCAVDNRGGGKHFSGESYLCSGALKRLILNLDPLPTNFEEDTLEIFGIQWVTETALVNSSRELFHLFRQQLYNLETLLQSSCDFGKVSTLHCKADNIRQQCVLFLHYVKVFIFRYLKVQNAESHVPVHPYEALEAQLPSVLIDELHGLLLYIGHLSELPSVNIGAFVNQNQIKLFPPSWHLLHLHLDIHWLVLEILYMLGEKLKQVVYGHQFMNLASDNLTNISLFEEHCETLLCDLISLSLNRYDKVRSSESLMSDQCPCLCIKELWVLLIHLLDHRSKWFVSESFWNWLNKLLKTLLEKSSDRRRSSMPVIQSRDPLGFSWWIITHVASFYKFDRHGVPDEMRKVESNWNFVEELLKKSISVQGVILEEQLRMYLHCCLTLCDFWEPNIAIVTILWEYYSKNLNSSFSISWLPFKGLANTMKSPLSMLEMVKTCCCDKQDQELYKSSSSYTIFLCILAKVVKKAMKSNGPHPWKQVKGRIYSKFHQKRMEELTEVGLQNFFSLFLLLAAVAEVEDVASHVLDLLNFLKPAFVTSQRALIWKGHMAFLLMYAQKNLDIGVLAEKFSCAFREKAKEFLVSKNEEMVQRQTIWTLLSIYIDGVQEVFETSYCLYPSHEKLLNDGFSMLLRACRESELRTVLSFLQAVLARIRSMHQQLCQELQRDNVDLFVQSSLSAKERHLAAVASALWRHFFSFLKSQRMSQVVPFSQLADAAADFTLLAMDMPSTAPSDFQPQPVISIIQLFGWDDIICPQVVARYLSHVLQNSTLCEALSHSGYVSFQALTVRSWIRCVLQMYIKNLSGPDDLLIDKNLEEAVEKEYMKQLVKLTRLLFNLSEVKSIFSKAQVEYLSISEDPKKALVRFFEAVGVTYGNVQTLSDKSAMVTKSLEYLGEVLKYIKPYLGKKVFSAGLQLTYGMMGILVKSWAQIFATSKAQKLLFRIIDCLLLPHAVLQQEKELPAPMLSAIQKSLPLYLQGMCIVCCQSQNPNAYLNQLLGNVIEQYIGRFLPASPYVSDLGQHPVLLALRNTATIPPISSLKKCIVQVIRKSYLEYKGSSPPPRLASILAFILQLFKETNTDIYEVELLLPGILKCLVLVSEPQVKRLATENLQYMVKACQVGSEEEPSSQLTSVFRQFIQDYGMRYYYQVYSILETVATLDQQVVIHLISTLTQSLKDSEQKWGLGRNIAQREAYSKLLSHLGQMGQDEMQRLENDNT
Regarding B1, the binding result in experiment [1] and in experiment [2] was “binds” each time.
